Test results as given in article PMC5095173, “Disulfide-activated protein kinase G Iα regulates cardiac diastolic relaxation and fine-tunes the Frank–Starling response” (Nature Communications, 2016).

Tests used:
[1] = system: PKGIα (analogue-sensitive C42S/M438G), cGMP-activated; assay: Chemical genetic phosphoproteomic screen, cGMP-activated PKGIα C42S/M438G versus unactivated control; format: biochemical, human PKGIα; substrates in rat heart homogenate; conditions: control = PKGIα C42S/M438G
In short: (§1)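 Analogue-sensitive human PKGIα mutants (M438G, air-oxidized to disulfide dimer; C42S/M438G, cGMP-activated), expressed in 293-F cells, thiophosphorylate substrates in rat left-ventricle lysate (20 mg ml) using N6-alkylated ATPγS. Thiophosphopeptides are recovered by covalent capture and identified with sites by LC–MS/MS, each compared against an unactivated control.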

[2] = system: PKGIα (analogue-sensitive M438G), disulfide-activated; assay: Chemical genetic phosphoproteomic screen, disulfide-activated PKGIα M438G versus unactivated control; format: biochemical, human PKGIα; substrates in rat heart homogenate; conditions: control = PKGIα C42S/M438G
In short: as §1

Molecule	log2 fold change cGMP vs Control [1]	log2 fold change Disulfide vs Control [2]
Map4 pT899 (protein, UniProt Q5M7W5 2-1057, looked up, phosphorylated at T899) Microtubule-associated …: ADLSLVDALTEPPPEIEGEIKRDFMAALEAEPYDDIVGETVEKTEFIPLLDGDEKSGNSESKRKPCVDTSQVEDIPSSKPTLLANGDHGVEGNNTTGSPTDFLVENVDYEDYQNSQSWPEDASFCFQPQQVLDTNQADPFNVHHDDGLADLLFVSSGPTNASAFIEENNPLEDSYGVLPCDSFAPTAVVSQEWSVGAPDSPHSEPCVSPEVTIETAQPATELSKAVDLESVKEQLPAKALEMMAGQTTDAVPSKESEGSPDTDAAPGPDTDVTLTKDIEESSSPDVISANVTQPFTESDMFLTQEMELLIGTEAAQVKDTMSSVEPDISSAKNTAPPTEEETVPGKDMTFPKEAETALPIEMDLAPPEDVALPKETELELAPAAGTAPLSETEVALAKDEEPSTGIPAAQEMLLSSETEVVLPSDSIMTLTKEVTVPLEAAGPLVSDMTAILETEMTLGGGTATPTETKLGKVKDMAPLPESEVALGKDVVTLPETKVTEFNNVTPLSEEEVASIKDVSPSPETETAKNADLHSGTELTLDNSMTPPSDPALPLETKVATVQIKDKETVQTQEELSEDSQLESVQLEGQSAVPPCTISPEPVKAADQKSTLPVDEGSPLEKLEQKETSGSQPPELCSGVSRQEEGKAAVGLTGNDIATPPNKELPPSPEKKAKPLATTQPAKTSTSKAKIQPTSLPKQPAPTTSGGLNKKPMSLASGSVPAAPHKRPAAATATARPSTLPARDLKPKPITETKVAEKRTSPSKPSSAPALRPGPKTTPTISKATSPSTLVSTGSSSRSPSTTLPKRPTTTKTEGKPADVKRMTAKSATADLSRSKTTSASSVKRNTTPTGATPPAGMASTRVKPMSAPCRSSVALSVDKKPTSTKPSSSAPRVSRLATTVSAPDLKSVRSKVGSTENMKHQPGGGRVQIQNKKVDISKVSSKCGSKANIKHKPGGGDVKIESQKLNFKEKAQAKVGSLDNVGHLPAGGTVKTEGGGSEAPPCPGPPAGEEPAIPEAAPDAGAPTSASGLSGHTTLSGGGDQREPQTLDSQIQETSI	3.693	1.73
Ptrf pT304 (protein, UniProt P85125 1-392, looked up, phosphorylated at T304) Caveolae-associated protein 1: MEDVTLHIVERPYSGYPDASSEGPEPTPGEARATEEPSGTGSDELIKSDQVNGVLVLSLLDKIIGAVDQIQLTQAQLEERQAEMEGAVQSIQGELSKLGKAHATTSNTVSKLLEKVRKVSVNVKTVRGSLERQAGQIKKLEVNEAELLRRRNFKVMIYQDEVKLPAKLSVSKSLKESEALPEKEGDELGEGERPEEDAAAIELSSDEAVEVEEVIEESRAERIKRSGLRRVDDFKKAFSKEKMEKTKVRTRENLEKTRLKTKENLEKTRHTLEKRMNKLGTRLVPVERREKLKTSRDKLRKSFTPDHVVYARSKTAVYKVPPFTFHVKKIREGEVEVLKATEMVEVGPDDDEVGAERGAETDLLRGSSPDVHTLLEITEESDAVLVDKSDSD	3.045	1.3031
Mylk3 pS444 (protein, UniProt E9PT87 1-786, looked up, phosphorylated at S444) Myosin light chain kinase 3: MSGVSEEDPEGLGPQGLPALGGACLVTVDKKLNVLTEKVDRLLHFQEDVTEKLQCVCQGMDHLEQGLHRLEASQELGLAGPGSTSPAAAQAAWPEVLELVRAVRQEGAQHGARLEALFKMVVAVDRAITLVGSTIQNSKVDDFILQGTVPWRKGSLADGPEENKEQAEVAGVKPKHVLNTGSVQAATSRALWEESQKQDTPVGTVEGLPLIIDTSLKGADLTQAGASLRQGVEALDPGQEPPPTEAESRLPALASEDTGTTLELSVAIDRISEVLTSLRMSQSAGEGTSSSKPDCSEPGPQPLGPLTTDSDIHSDEGLPRISVRMREMTTPEELFETQGGSPIGSAEAPGPGTVLEDQIPKGARPFPPLPKRSCNNGGASAEEATGPGAEPIRGPSLVTRDWRDEPVGTTDLQQGRDPGAVSPEPGKDHAAQGPGRTEAGRRVSSAAEAAIVVLDDSAAPPAPFEHRVVSIKDTLISTSYTVSQHEVLGGGRFGQVHRCTERSTGLALAAKIIKVKNIKDREDVKNEINIMNQLSHVNLIQLYDAFESKNSFTLIMEYVDGGELFDRITDEKYHLTELDVVLFTRQICEGVHYLHQHYILHLDLKPENILCVSQTGHQIKIIDFGLARRYKPREKLKVNFGTPEFLAPEVVNYEFVSFPTDMWSVGVITYMLLSGLSPFLGETDAETMNFIVNCSWDFDADTFKGLSEEAKDFVSRLLVKEKSCRMSATQCLKHEWLNHLIAKASGSNVRLRSQLLLQKYMAQRKWKKHFHVVTAVNRLRKFPTCP	3.077	0.1624
Serbp1 pS391 (protein, UniProt Q9CY58 1-407, looked up, phosphorylated S391) SERPINE1 mRNA-binding protein …: MPGHLQEGFGCVVTNRFDQLFDDESDPFEVLKAAENKKKEAGGGGVGGPGAKSAAQAAAQTNSNAAGKQLRKESQKDRKNPLPPSVGVADKKEETQPPVALKKEGIRRVGRRPDQQLQGDGKLIDRRAERRPPRERRFEKPLEEKGEGGEFSVDRPIIERPIRGRGGLGRGRGGRGRGMGRGDGFDSRGKREFDRHSGSDRSSFSHYSGLKHEDKRGGSGSHNWGTVKDELTESPKYIQKQISYNCSDLDQSNVTEETPEGEEHPVADTENKENEVEEVKEEGPKEMTLDEWKAIQNKDRAKVEFNIRKPNEGADGQWKKGFVLHKSKSEEAHAEDSVMDHHFRKPANDITSQLEINFGDLGRPGRGGRGGRGGRGRGGRPNRGSRTDKSSASAPDVDDPEAFPALA	6.458	3.516
Micall1 pS307 (protein, UniProt D3ZQL6 1-855, looked up, phosphorylated at S307) MICAL-like protein 1: MAGPRGALLAWCRRQCEGYRGVDIRDLSSSFRDGLAFCAILHRHRPDLLDFQSLSKENVFENNRLAFEVAEKELGIPALLDPNDMVSMSVPDCLSIMTYVSQYYNHFTSSGQAAASPPKPGKDPAAPSPTSTSPAVQPGEEAQGDDLSPDSLSEQGKPQPPSSACAACGQRVHLVQRYLAEGRLYHRHCFRCRQCSSTLVPGSYSSGPEEGTFVCAERCTRLGLGGRSGTRPLSLQKQQPAAAAEAKDGEDSDLSKSVVVVAAEADGLQASSEVQPHTLTKPPLPSKPQDLASPPVSRPTPAPRKASESSALTPPTPRPRSSLQQDGMVEQSVSGDLVNGRLQELPVPKPRGTPKLSERMTAPRKDPPWITLVQTEPKKKPAPLPPSSGPGPLSQASRQVENGGLEEKTQKSPAAEPEPKPYNPFEEEEEEEEASVPAVPSPAPAPPETTPKSLHPWYNITPTSSPKTKKRPAPKAPSASPLVLHASRLSHSEPPSATPSPALSVESLSSESSSHTANTEPSEPPAVPKSSSDPAVHVPGTPGTSANSVTPSAHSSLSSSGELGQPSGEQMPQARTRGSPGTHSTKPFSGATPTPFLLAGDQKSPAPPMGSSSPQMLIKSSCKENPFNRKPSPSTSPTVRKATKGAKPVRPPAPGHGFPLIKRKVQADQYIPEEDIYGEMDSIERQLDALEHSGVLLEEKLRGGANEGSEDDMLVDWFKLIHEKHLLVRRESELIYVFKQQNLEQRQADVEFELRCLLNKPEKDWTDDDRAREKVLMQELMTLIEQRDAIVNCLDEDRQREEEEDKMLETMIKKKDFQREAESDSKKKGKFKTMKVLKLLGNKRDAKSKAPTGKS	2.266	1.417
Murc pS257 (protein, UniProt B1PRL5 1-362, looked up, phosphorylated at S257) Caveolae-associated protein 4: MEHNGSASNAGKIHQNRLSSVTEDEDQDAALTIVTVLDRVATVVDSVQASQKRIEERHREMGNAIKSVQIDLLKLSQSHSNTGYVVNKLFEKTRKVSAHIKDVKARVEKQQVRVTKVETKQEEIMKKNKFRVVIFQEDVPCPASLSVVKDRSLPENEEEAEEVFDPPIDLSSDEEYYVEESRSARLRKSGKEHIDHIKKAFSKENMQKTRQNFDKKVSGIRTRIVTPERRERLRQSGERLRQSGERLRQSGERFKKSISNATPSKEAFKIRSLRKPKDPKAEGQEVDRGMGVDIISGSLALGPIHEFHSDGFSETEKEVTKVGYIPQEGGDPPTPEPLKVTFKPQVRVEDDESLLLELKQSS	1.807	0.9013
